According to patent publication US20160356775:

Tests used:
[1] = target: T1, GST-recombinant human FoXO3a, O43524
T1 chain: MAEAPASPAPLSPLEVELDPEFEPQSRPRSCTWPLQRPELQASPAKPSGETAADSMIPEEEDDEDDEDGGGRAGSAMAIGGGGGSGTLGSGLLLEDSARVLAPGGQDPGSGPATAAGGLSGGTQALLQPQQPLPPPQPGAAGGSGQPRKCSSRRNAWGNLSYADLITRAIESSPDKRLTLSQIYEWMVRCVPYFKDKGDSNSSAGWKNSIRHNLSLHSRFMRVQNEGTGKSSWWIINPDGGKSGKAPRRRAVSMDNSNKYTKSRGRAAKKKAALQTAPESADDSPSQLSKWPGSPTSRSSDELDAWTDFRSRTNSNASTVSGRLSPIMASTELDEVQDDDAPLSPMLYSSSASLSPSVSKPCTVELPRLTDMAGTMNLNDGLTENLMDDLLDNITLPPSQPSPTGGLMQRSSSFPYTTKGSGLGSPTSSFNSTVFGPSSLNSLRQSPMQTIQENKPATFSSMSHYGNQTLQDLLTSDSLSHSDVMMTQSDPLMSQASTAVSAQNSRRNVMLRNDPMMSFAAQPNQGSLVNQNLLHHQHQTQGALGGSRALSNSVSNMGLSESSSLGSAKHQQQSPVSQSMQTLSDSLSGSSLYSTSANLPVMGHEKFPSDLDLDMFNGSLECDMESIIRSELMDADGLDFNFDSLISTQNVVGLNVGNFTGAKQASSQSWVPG

[2] = target: T2, full length recombinant human ERα protein (Invitrogen), P03372
T2 chain: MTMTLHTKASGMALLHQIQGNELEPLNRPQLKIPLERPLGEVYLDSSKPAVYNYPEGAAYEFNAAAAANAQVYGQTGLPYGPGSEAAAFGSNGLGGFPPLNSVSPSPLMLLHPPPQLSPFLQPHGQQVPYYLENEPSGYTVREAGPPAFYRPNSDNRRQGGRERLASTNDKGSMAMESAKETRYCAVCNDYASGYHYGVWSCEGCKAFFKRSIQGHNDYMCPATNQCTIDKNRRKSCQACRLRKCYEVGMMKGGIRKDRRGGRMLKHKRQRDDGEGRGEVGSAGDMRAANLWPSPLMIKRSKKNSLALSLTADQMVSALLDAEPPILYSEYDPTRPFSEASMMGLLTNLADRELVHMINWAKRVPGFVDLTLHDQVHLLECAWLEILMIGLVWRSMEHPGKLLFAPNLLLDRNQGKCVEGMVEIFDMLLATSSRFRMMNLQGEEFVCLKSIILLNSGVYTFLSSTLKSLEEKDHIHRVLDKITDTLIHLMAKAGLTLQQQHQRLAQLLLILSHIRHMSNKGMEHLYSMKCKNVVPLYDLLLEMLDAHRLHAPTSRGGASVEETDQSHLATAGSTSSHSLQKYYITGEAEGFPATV

[3] = target: recombinant PKC (Promega)

B1: recombinant LMTK3 kinase domain (protein)
chain: LSYLQEIGSGWFGKVILGEIFSDYTPAQVVVKELRASAGPLEQRKFISEAQPYRSLQHPNVLQCLGLCVETLPFLLIMEFCQLGDLKRYLRAQRPPEGLSPELPPRDLRTLQRMGLEIARGLAHLHSHNYVHSDLALRNCLLTSDLTVRIGDYGLAHSNYKEDYYLTPERLWIPLRWAAPELLGELHGTFMVVDQSRESNIWSLGVTLWELFEFGAQPYRHLSDEEVLAFVVRQQHVKLARPRLKLPYADYWYDILQSCWRPPAQRPSASDLQLQLTYL
[1]
  in vitro kinase assay (32P autoradiography): LMTK3 directly phosphorylates ... FoxO3a
[2]
  in vitro phosphorylation followed by in vitro proteasome degradation assay: phosphorylation of ERα by LMTK3 (FIG. 20d) rescued ERα from in vitro proteasome-mediated degradation (FIG. 20e)
[3]
  in vitro kinase assay, PKC phosphorylation of histone: LMTK3 inhibits the ability of PKC to phosphorylate histone
